The text below walks through data of patent US6136579.

This assay addresses asialofetuin (Sigma Type-I) (Bos taurus (Bovine)) (UniProt P12763).

Consider “Triton extract of uninfected RK13 cells (pool or library)”, for which the […] (fluorescence assay, […] (mU/mg total protein) worked out at 0.036.
